Measurements published in patent US20240287172A1 (SCIRHOM, published 2024).

T1: human iRhom1, endogenously expressed (human, UniProt Q96CC6 1-855)
T1 construct: also called iRhom1 on RH-30 cells
T1 sequence: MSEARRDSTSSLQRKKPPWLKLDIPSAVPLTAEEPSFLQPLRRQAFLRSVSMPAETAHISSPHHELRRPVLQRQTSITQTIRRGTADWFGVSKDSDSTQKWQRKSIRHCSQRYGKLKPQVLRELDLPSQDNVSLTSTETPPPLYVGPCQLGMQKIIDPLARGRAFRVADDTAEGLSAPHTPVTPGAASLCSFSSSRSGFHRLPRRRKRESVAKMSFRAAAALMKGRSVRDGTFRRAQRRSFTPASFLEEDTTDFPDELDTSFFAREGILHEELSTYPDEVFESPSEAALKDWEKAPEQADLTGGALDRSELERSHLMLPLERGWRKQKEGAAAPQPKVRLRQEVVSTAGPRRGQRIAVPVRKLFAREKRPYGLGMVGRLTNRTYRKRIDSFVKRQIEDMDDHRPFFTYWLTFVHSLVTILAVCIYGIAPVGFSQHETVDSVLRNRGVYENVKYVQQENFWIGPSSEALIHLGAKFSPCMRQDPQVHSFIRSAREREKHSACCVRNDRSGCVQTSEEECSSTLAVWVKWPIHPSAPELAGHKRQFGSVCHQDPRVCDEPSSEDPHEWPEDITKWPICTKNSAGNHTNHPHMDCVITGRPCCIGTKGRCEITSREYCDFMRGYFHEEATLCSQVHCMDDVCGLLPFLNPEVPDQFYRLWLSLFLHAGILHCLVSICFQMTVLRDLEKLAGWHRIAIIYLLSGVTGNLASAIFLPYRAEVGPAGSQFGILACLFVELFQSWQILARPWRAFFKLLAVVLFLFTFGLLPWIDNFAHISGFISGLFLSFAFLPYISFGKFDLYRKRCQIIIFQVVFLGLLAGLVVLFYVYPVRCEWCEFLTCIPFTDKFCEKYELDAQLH


Target: T1, human iRhom1, endogenously expressed
Assay: FACS, RH-30 cells; via representative antibody 16
Description: In this study, binding specificity analyses of the hybridoma supernatant leading to the antibody 16 of the invention as a representative example of antibodies 3, 16, 22 and 42 of the invention as well as of the antibody 16 of the invention as a representative example of antibodies 16, 22 and 42 of the invention in cell lines endogenously expressing iRhom2 were performed. The studies were conducted on RPMI-8226 cells, a human B lymphocytic cell line endogenously expressing iRhom2 but being endogenously negative for iRhom1, on THP-1 cells, a human monocytic cell line endogenously expressing both iRhom2 and iRhom1 and on RH-30 cells, a human […] cell line endogenously negative for iRhom2 but endogenously expressing iRhom1.
In brief, human RPMI-8226 cells (Deutsche Sammlung von Mikroorganismen und Zellkulturen, Germany), THP-1 cells (American Type Culture Collection, USA) and RH-30 cells (Deutsche Sammlung von Mikroorganismen und Zellkulturen, Germany) were harvested with 10 mM EDTA in PBS, washed and resuspended in FACS buffer (PBS, 3% FBS, 0.05% sodium azide), and seeded in Nunc U-bottom 96-well plates (Thermo Fisher Scientific, USA) at approximately 2×10⁵ cells per well. […] Finally, cells were resuspended in 150 μl per well of FACS buffer and analyzed using a BD Accuri™ C6 Plus flow cytometer (Becton Dickinson, Germany).

Row | Binder | binding result
1 | antibody 22 (antibody, V domains shown, mouse IgG, kappa light chain; also called clone #22; purified antibody 22) VH: QVTLKESGPGILQPSQTLSLTCSFSGFSLSTFGMGVGWIRQPSGKGLEWLAHIWWDDEKYYNSALKSRLTISKATSKNQVFLKIANVDTADTATYYCARISNYGSNYWYFNVWGTGTTVTVSS VL: QVVLTQSPALMSASPGEKVTMTCSAGSSVSYMYWYQQKPGSSPRVLIYDTSNLASGVPARFTGSGSGTSYSLTISRMEAEDAATYYCQQWNSYPLTFGAGTKLELK | no binding (tested: 3 µg/ml)
2 | antibody 42 (antibody, V domains shown, mouse IgG, kappa light chain; also called clone #42; purified antibody 42) VH: QVTLKESGPGILQPSQTLSLTCSLSGFSLSTFGRGVGWIRQPSGKGLEWLAHIWWDDEKYYNPALKSRLTISKDTSKNQVFLRIANVDTADTATYYCARIQNYGSNYWYFDVWGTGTTVTVSS VL: LIVLTQSPAIMSASPGEKVTMTCGATSRISYMFWYQQKPGSSPRVLIYDTSNLASGVPVRFSGSGSGTSYSLTISRVEAEDVATYYCQQWNSYPLTFGAGTKLELK | no binding (tested: 3 µg/ml)
